These results are taken from patent publication US20250277054A1 (WUXI BIOLOGICS IRELAND, published 2025).

Read-outs that look alike come from different tables or passages of the source.

Assay [1] has as its target T1, human PSMA on human prostate cancer cells (LNCaP, C4-2, 22Rv1) (human, UniProt Q04609 1-750). Nature of the assay: cell-based or functional assay.
In assay [2] the target is T1, human PSMA on human prostate cancer …. Nature of the assay: cell-based or functional assay. The source holds these as a separate data set.
In assay [3] the target is T2, Human PSMA.ECD.His (Acro) (human, UniProt Q04609 44-750).
T2 construct: extracellular domain; Bought protein with His tag; also called human PSMA ECD protein; Human PSMA/FOLH1 protein, His tag
As to the kind of experiment: ELISA, coated human PSMA protein (His tag). As for the experimental part:
(§1) Briefly, 1 μg/mL human PSMA protein (His tag) were coated onto wells in ELISA plate in coating buffer at 4° C. for 16 hours. After washing the plate with 1×PBST once, the plate was blocked by using 200 μL/well 2% BSA for one hour. After washing the plate for three times with 1×PBST, various concentrations of antibodies diluted in 2% BSA (5-fold serially diluted from 200 nM to 0.004096 pM) were added to the wells and the plate was incubated for one hour at ambient temperature. After washing the plate three times with 1×PBST, Goat anti-human-IgG-Fc-HRP (at 1:5000 dilution) was added into wells and incubated for one hour. After washing six times with 1×PBST, 100 μL/well of TMB substrate solution was added into wells and incubated for 5 minutes in dark and then 100 μL/well of 2M HCl was added into wells to stop the reaction. The relative light unit (RLU) was measured at OD₄₅₀ and OD₅₄₀ by SPECTRAMAX M5E. The binding EC₅₀ was calculated by GraphPad Prism 7 software by plotting antibody concentration (x-axis) versus OD₄₅₀₋₅₄₀ (y-axis) and analyzing as: Nonlinear regression (curve fit)-log (agonist) vs. response-Variable slope (four parameters).
Background: In an ELISA, binding on a coated surface is turned into a signal by an enzyme label.

Assay [4] concerns the target T1, human PSMA on human prostate cancer …. As to the kind of experiment: flow cytometry on 22Rv1 cells (PSMA low). As for the experimental part: (§2) After washing twice with 1×PBS/1% BSA/0.1 mM EDTA, Alexa fluor 647-labeled goat anti-human IgG Fc (at 1:500 dilution) was added and the plate was incubated at 4° C. for half an hour in dark. After washing twice with 1×PBS/1% BSA/0.1 mM EDTA, cells were re-suspended in 1×PBS/1% BSA/0.1 mM EDTA, and mean fluorescence intensity (MFI) was measured by a flow cytometer and analyzed by FLOWJO. The binding EC₅₀ was calculated by GraphPad Prism 7 software by plotting antibody concentration (x-axis) versus […] (y-axis) and analyzing as: Nonlinear regression (curve fit)-log (agonist) vs. response-Variable slope (four parameters).

For assay [5] the target is unchanged. As to the kind of experiment: flow cytometry on C4-2 cells (PSMA high). As for the experimental part: as §2
Assay [6] has the same target. As to the kind of experiment: flow cytometry on LNCaP cells (PSMA high). As for the experimental part:
as §2

Assay [7] addresses T2, Human PSMA.ECD.His (Acro). Nature of the assay: ELISA, coated human PSMA protein (His tag). As for the experimental part: as §1
This is another data set of the same source.

Assay [8] deals with T3, Mouse PSMA.ECD.His (Acro) (mouse, UniProt O35409 45-752).
T3 construct: extracellular domain; Bought protein with His tag; also called mouse PSMA protein (His tag); Mouse PSMA/FOLH1 protein, His tag
Nature of the assay: ELISA, coated mouse PSMA protein (His tag). As for the experimental part: (§3) Briefly, 1 μg/mL cynomolgus PSMA protein (His tag) and 2 μg/mL mouse PSMA protein (His tag) were coated onto wells in an ELISA plate in coating buffer at 4° C. for 16 hours. After washing plate with 1×PBST once, the plate was blocked by using 200 μL/well 2% BSA for one hour. […] After washing three times with 1×PBST, Goat anti-human-IgG-Fc-HRP (at 1:5000 dilution) was added and incubated for one hour. After washing six times with 1×PBST, 100 μL/well of TMB substrate solution was added into wells and incubated for 5 minutes in dark and then 100 μL/well of 2M HCL were added into wells to stop the reaction. The relative light unit (RLU) was measured at OD₄₅₀ and OD₅₄₀ by SPECTRAMAX M5E. EC₅₀ was determined as described above.

Assay [9] deals with T4, full-length cynomolgus PSMA on Flp-in CHO cells (WBP3xx042-FlpinCHO.cPro1.B7) (cynomolgus, UniProt A0A2K5VNZ0 1-750).
T4 construct: whole, on cells; also called Cyno PSMA+ CHO cells; FlpInCHO-cyno PSMA
Nature of the assay: flow cytometry on FlpInCHO-cyno PSMA cells. As for the experimental part:
WBP3xx042-FlpinCHO.cPro1.B7 (5×10⁴ cells) was incubated with various concentrations of antibodies 4° C. for one hour. After washing twice with 1×PBS/1% BSA/0.1 mM EDTA, secondary antibody, Alexa fluor 647-labeled goat anti-human IgG Fc, was added and the plate was incubated at 4° C. for half an hour in dark. After washing twice with 1×PBS/1% BSA/0.1 mM EDTA, cells were re-suspended in 1×PBS/1% BSA/0.1 mM EDTA. MFI and EC₅₀ were determined as described above.
A general note: A flow cytometer gives signals particle by particle.

For assay [10], the target named is T5, Cyno PSMA.ECD.His (Acro) (cynomolgus, UniProt A0A2K5VNZ0 44-750).
T5 construct: extracellular domain; Bought protein with His tag; also called cynomolgus PSMA ECD protein; Cynomolgus PSMA/FOLH1 protein, His tag
As to the kind of experiment: ELISA, coated cynomolgus PSMA protein (His tag). Here is the method: as §3

Assay [11] addresses T5, Cyno PSMA.ECD.His (Acro). As to the kind of experiment: ELISA, coated cynomolgus PSMA protein (His tag). Here is the method: as §3
This is another data set of the same source.

In assay [12] the target is T6, Human CD3δ & CD3ε heterodimer protein (Flag & His Tag) (human, UniProt P04234 22-105; P07766 23-126).
T6 construct: Bought heterodimer with Flag and His tags
Nature of the assay: SPR (Biacore 8K), antibody captured by anti-human IgG Fc, CD3δ & CD3ε heterodimer injected, 1:1 model. As for the experimental part:
Each antibody was captured on an anti-human IgG Fc antibody immobilized CM5 sensor chip (Cytiva). human CD3δ & CD3ε heterodimer at different concentrations were injected over the sensor chip at a flow rate of 30 μL/min for an association phase of 120 s, followed by 240 s dissociation. The chip was regenerated by 10 mM glycine (pH 1.5) after each binding cycle.
The sensorgrams of blank surface and buffer channel were subtracted from the test sensorgrams. The experimental data was fitted by 1:1 binding model. Molecular weight of 31 kDa was used to calculate the molar concentration of human CD3δ & CD3ε heterodimer.
Background: SPR reads the build-up and loss of mass on a sensor chip optically.

Assay [13] has as its target T7, Biotinylated Human PSMA/FOLH1 Protein, His, Avitag (human, UniProt Q04609 44-750, biotin label (Avitag)).
T7 construct: Bought protein; also called Human PSMA Protein (His Tag & biotin label)
As to the kind of experiment: SPR (Biacore 8K), biotinylated human PSMA captured on streptavidin chip, antibody injected, single-cycle, 1:1 model. As for the experimental part: Biotinylated human PSMA was captured on a streptavidin-immobilized CM5 sensor chip (Cytiva). Antibodies at different concentrations were injected over the sensor chip in an injection type of single-cycle at a flow rate of 30 μL/min for an association phase of 180 s, followed by 600-3600 s dissociation. The chip was then regenerated by 10 mM glycine (pH1.5) at the last binding cycle.
The sensorgrams of the blank surface and buffer channel were subtracted from the test sensorgrams. The experimental data were fitted by 1:1 binding model.

T6 sequence (P04234 22-105, stated change not applied, form in doubt, chain 1 of 2): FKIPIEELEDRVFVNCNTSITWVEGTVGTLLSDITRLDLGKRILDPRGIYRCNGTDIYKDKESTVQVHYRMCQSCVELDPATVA
T6 sequence (P07766 23-126, stated change not applied, form in doubt, chain 2 of 2): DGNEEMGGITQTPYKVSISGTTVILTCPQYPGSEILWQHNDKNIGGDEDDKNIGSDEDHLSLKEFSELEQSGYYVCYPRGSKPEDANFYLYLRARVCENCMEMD
T1 sequence (Q04609 whole entry): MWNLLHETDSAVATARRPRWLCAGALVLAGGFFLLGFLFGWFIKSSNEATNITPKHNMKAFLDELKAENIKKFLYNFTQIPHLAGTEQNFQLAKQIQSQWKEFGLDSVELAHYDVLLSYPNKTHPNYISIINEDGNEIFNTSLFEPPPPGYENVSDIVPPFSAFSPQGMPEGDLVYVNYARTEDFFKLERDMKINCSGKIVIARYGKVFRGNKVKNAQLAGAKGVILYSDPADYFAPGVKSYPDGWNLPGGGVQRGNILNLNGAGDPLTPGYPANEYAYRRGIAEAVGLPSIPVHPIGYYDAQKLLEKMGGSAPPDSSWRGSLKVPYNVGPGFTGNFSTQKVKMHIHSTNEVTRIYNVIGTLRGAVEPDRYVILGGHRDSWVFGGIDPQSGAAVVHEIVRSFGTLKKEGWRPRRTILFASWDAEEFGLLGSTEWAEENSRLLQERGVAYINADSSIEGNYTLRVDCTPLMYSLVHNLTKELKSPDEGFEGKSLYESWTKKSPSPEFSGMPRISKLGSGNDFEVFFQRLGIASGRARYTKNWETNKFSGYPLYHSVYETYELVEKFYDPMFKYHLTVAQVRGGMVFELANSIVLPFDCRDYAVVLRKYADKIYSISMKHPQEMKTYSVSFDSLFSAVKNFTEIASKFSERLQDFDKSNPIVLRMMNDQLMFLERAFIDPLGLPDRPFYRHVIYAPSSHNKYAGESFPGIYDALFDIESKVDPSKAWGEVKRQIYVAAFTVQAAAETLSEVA
T7 sequence (Q04609 44-750 limits assumed): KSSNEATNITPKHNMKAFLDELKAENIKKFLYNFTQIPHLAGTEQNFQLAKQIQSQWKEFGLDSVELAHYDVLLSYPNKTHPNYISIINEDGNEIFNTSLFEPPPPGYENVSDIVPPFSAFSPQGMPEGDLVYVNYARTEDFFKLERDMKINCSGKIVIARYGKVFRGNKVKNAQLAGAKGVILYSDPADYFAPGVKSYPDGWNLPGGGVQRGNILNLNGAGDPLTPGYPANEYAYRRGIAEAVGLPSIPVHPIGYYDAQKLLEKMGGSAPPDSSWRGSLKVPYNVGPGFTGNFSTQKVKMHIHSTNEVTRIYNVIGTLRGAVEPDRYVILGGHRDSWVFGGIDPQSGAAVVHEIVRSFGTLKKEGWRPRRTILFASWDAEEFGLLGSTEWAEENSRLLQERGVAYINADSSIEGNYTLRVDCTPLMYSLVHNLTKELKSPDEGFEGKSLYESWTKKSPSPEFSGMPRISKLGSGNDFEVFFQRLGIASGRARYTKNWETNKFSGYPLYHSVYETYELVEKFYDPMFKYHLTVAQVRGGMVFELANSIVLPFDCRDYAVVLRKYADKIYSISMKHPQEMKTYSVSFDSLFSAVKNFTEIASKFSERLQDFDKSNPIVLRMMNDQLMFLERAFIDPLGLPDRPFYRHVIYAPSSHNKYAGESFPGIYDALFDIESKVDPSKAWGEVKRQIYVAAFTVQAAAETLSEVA
T2 sequence (Q04609 44-750): as the sequence (Q04609 44-750 limits assumed) above
T3 sequence (O35409 45-752): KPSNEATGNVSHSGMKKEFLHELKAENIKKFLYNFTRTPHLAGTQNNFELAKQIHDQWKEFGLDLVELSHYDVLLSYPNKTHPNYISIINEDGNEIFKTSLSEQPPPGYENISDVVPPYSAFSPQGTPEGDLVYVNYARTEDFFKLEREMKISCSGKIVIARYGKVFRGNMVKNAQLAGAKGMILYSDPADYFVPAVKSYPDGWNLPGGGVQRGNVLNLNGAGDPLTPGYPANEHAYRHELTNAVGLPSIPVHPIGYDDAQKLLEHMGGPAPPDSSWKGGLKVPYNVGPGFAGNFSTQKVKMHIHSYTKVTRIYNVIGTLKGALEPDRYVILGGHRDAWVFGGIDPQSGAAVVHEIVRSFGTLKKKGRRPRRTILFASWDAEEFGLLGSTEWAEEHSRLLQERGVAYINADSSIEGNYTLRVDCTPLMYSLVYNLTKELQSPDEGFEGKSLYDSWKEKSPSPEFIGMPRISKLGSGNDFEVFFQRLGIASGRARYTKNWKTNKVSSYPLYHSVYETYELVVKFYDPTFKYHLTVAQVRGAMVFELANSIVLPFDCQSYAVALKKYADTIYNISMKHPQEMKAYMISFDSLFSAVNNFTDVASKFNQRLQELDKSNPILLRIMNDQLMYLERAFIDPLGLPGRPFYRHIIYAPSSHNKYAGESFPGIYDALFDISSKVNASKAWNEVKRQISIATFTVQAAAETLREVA

B1: W308051-T3U5.E17-61.uIgG4V322 (bispecific antibody)
heavy 1: QVQLVQSGAEVKKPGSSVKVSCKASGFAFTDYYIHWVRQAPGQGLEWMGWISPGNVNTKYNENFKGRVTITADKSTSTAYMELSSLRSEDTAVYYCARDGYSLYYFDYWGQGTLVTVLEDLKNVFPPEVAVFEPSECEISHTQKATLVCLATGFYPDHVELSWWVNGKEVHSGVCTDPQPLKEQPALQDSRYALSSRLRVSATFWQNPRNHFRCQVQFYGLSENDEWTQDRAKPVTQIVSAEAWGRYGPPCPPCPAPEAAGGPSVFLFPPKPKDTLMISRTPEVTCVVVDVSQEDPEVQFNWYVDGVEVHNAKTKPREEQFNSTYRVVSVLTVLHQDWLNGKEYKCKVSNKGLPSSIEKTISKAKGQPREPQVYTLPPCQEEMTKNQVSLWCLVKGFYPSDIAVEWESNGQPENNYKTTPPVLDSDGSFFLYSRLTVDKSRWQEGNVFSCSVMHEALHNHYTQKSLSLSLG
light 1: DIVMTQSPDSLAVSLGERATINCKSSQSLLNSRTRKNYLAWYQQKPGQPPKLLIYWASTRQSGVPDRFSGSGSGTDFTLTISSLQAEDVAVYYCTQSHTLRTFGGGTKVEIKPDIQNPDPAVYQLRDSKSSDKSVCLFTDFDSQTQVSQSKDSDVYITDKCVLDMRSMDFKSNSAVAWSQKSDFACANAFQNSIIPEDTFFCS
heavy 2: EVQLVQSGAEVKKPGESLKISCKASGYSFTTYWIGWVRQMPGKGLELMGIIYPYDSDTRYSPSFQGQVTISADKSINTAYLQWSSLKASDTAMYYCARITGGYLFDYWGQGILVTVSSASTKGPSVFPLAPCSRSTSESTAALGCLVKDYFPEPVTVSWNSGALTSGVHTFPAVLQSSGLYSLSSVVTVPSSSLGTKTYTCNVDHKPSNTKVDKRVESKYGPPCPPCPAPEAAGGPSVFLFPPKPKDTLMISRTPEVTCVVVDVSQEDPEVQFNWYVDGVEVHNAKTKPREEQFNSTYRVVSVLTVLHQDWLNGKEYKCKVSNKGLPSSIEKTISKAKGQPREPQVCTLPPSQEEMTKNQVSLSCAVKGFYPSDIAVEWESNGQPENNYKTTPPVLDSDGSFFLVSRLTVDKSRWQEGNVFSCSVMHEALHNHYTQKSLSLSLG
light 2: QSALTQPPSASGSPGQSVTISCTGTSSDVGGYNYVSWYQQHPGKAPKLMIYEVTKRPSGVPDRFSGSKSGNTASLTVSGLQAEDEADYYCTSYAGSNKYVFGTGTKVTVLGQPKAAPSVTLFPPSSEELQANKATLVCLISDFYPGAVTVAWKADSSPVKAGVETTTPSKQSNNKYAASSYLSLTPEQWKSHKSYSCQVTHEGSTVEKTVAPTECS
notes: CD3xPSMA bispecific; also called WBP308051
As a reminder, the EC50 is the concentration at which the effect is half-maximal. The Kd is the concentration at which binding is half-saturated. A high value points to weaker binding. A word on the koff: it is a measure of how fast the partners let go of each other. One may read the kon as a measure of how fast the partners come together. Low values mean slow association, high ones fast association. Turning to B1, the “IC50 of T cell cytotoxicity, CD3+ T + C4-2” value in assay [1] worked out at 0.082 nM. Besides, the “IC50 of T cell cytotoxicity, CD3+ T + LNCaP” value in assay [1] stood at 0.037 nM. In addition, in assay [2], the “EC50 of IFN-γ release, CD3+ T + C4-2” value is around 0.16 nM. Further, the EC50 in [3] is 0.027 nM; in [4], 0.29 nM; in assay [5], 1.48 nM; in [6] it was 0.58 nM; in [7], 0.03 nM; in assay [8], 1.34 nM. Moreover, the EC50 in assay [9] was 3.2 nM; with Cyno PSMA.ECD.His (Acro) [10], 0.045 nM; in the assay with Cyno PSMA.ECD.His (Acro) [11] it was 0.05 nM. Also, the Kd in assay [12] was 60.2 nM; in assay [13], 0.0158 nM. In addition, the results for the koff in [12] and in assay [13] were 0.0331 s⁻¹ and 1.39e-05 s⁻¹, respectively. Besides, the figures for the kon in [12] and in assay [13] were 550000 M⁻¹ s⁻¹ and 880000 M⁻¹ s⁻¹, respectively.
